Experimental data taken from patent US20030143209A1 (AVENTIS PHARMA S A, published 2003).

Molecular target: T1, CAR (Coxsackie and adenoviruses receptor) (human, UniProt P78310 20-365)
T1 sequence: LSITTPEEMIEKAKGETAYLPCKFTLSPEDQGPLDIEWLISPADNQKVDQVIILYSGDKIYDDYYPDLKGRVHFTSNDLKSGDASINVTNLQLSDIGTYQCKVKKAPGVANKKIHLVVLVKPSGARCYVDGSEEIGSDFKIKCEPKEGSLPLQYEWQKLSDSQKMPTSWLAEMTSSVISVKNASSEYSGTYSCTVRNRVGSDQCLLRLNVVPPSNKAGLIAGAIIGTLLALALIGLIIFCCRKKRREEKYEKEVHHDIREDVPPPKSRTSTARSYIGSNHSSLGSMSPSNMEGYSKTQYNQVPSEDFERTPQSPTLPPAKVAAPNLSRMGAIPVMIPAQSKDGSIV
Experiment: cell-based or functional assay

B1: vBS1: Ad5 virus with short-shafted fiber from Ad5 (deletion encompassing shaft repeats 4-16) (other)
chain: MKRARPSEDTFNPVYPYDTETGPPTVPFLTPPFVSPNGFQESPPGVLSLRLSEPLVTSNGMLALKMGNGLSLDEAGNLTSQNVTTVSPPLKKTKSNLDINYNKGLYLFTASNNSKKLEVNLSTAKGLMFDATAIAINAGDGLEFGSPNAPNTNPLKTKIGHGLEFDSNKAMVPKLGTGLSFDSTGAITVGNKNNDKLTLWTTPAPSPNCRLNAEKDAKLTLVLTKCGSQILATVSVLAVKGSLAPISGTVQSAHLIIRFDENGVLLNNSFLDPEYWNFRNGDLTEGTAYTNAVGFMPNLSAYPKSHGKTAKSNIVSQVYLNGDKTKPVTLTITLNGTQETGDTTPSAYSMSFSWDWSGHNYINEIFATSSYTFSYIAQE
  cell transduction of 293 cells (specific lacZ expression, moi 50 VP/cell): 10 fold
